Test [1] deals with T1, detergent-purified, full-length CD9 (wtCD9-3xSTREP) (human, UniProt P21926).
T1 construct: human CD9 (Tspan29), wild type, full length; The construct section lists full-length CD9 with an N-terminal Strep-II tag or an N-terminal Strep3-GFP tag with a TEV site; also called wtCD9-3Strep; source: detergent-purified
In words: ELISA; 100 ng wtCD9-3Strep captured on Strep-Tactin coated wells; serial dilutions of nanobody for 2 h at rt in 2% BSA, 25 mM Hepes pH 7.5, 150 mM NaCl, 0.025% DDM; detection with anti-VHH and IRDye800CW; triplicate; apparent KD by one-site specific binding fit. The following applies: both partners purified. (In general: ELISA stands for enzyme-linked immunosorbent assay.)

Test [2] concerns the target T2, endogenous CD9 on HeLa cells (human (endogenous in HeLa), UniProt P21926).
T2 construct: CD9 (Tspan29) endogenous on HeLa cells; also called CD9 endogenously expressed on HeLa cells; cell-membrane embedded CD9; source: endogenous, on HeLa cells
In words: binding assay on cells in 96-well plates, infrared fluorescence read-out (anti-VHH, IRDye800CW, Odyssey); HeLa cells seeded in 96-well plates, serial dilutions of nanobody for 2 h at 4°C in 1% BSA, 25 mM Hepes pH 7.2 in DMEM; cells fixed with 4% formaldehyde before detection; triplicate; apparent KD by one-site specific binding fit. The note with it: one partner purified.

For test [3], the target named is T3, endogenous CD9 on HeLa cells (human (endogenous in HeLa), UniProt P21926 1-228).
T3 chain: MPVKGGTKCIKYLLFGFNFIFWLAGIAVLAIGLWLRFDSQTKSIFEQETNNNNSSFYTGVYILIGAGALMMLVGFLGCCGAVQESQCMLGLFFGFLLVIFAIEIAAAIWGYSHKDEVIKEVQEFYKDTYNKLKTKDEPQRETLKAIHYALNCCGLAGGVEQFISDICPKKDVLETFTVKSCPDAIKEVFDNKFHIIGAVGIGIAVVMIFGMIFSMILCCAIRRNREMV
Description: apparent, on HeLa cells.

For test [4], the target named is T4, detergent-purified, full-length CD9 (wtCD9-3xSTREP) (human, UniProt P21926 1-228).
T4 chain: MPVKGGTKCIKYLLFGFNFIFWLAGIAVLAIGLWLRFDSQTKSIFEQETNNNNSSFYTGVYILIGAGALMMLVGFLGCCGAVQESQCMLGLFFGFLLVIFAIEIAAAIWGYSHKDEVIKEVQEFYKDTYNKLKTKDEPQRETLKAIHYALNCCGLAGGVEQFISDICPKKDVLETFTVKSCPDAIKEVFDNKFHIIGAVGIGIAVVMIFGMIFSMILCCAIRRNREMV
Description: ELISA; apparent, detergent-purified CD9.

Test [5] concerns the target T5, CD9–EWI-F_(ΔIg1-5) complex (human, UniProt P21926;Q9P2B2).
T5 construct: human CD9 (Tspan29), wild type, full length; as m12; human EWI-F, residues T685-D879, UniprotKB Q9P2B2; as m11; Preformed complex to which 4C8 was added; source: HEK293-EBNA GNT1- cells, co-expressed, co-purified in digitonin (Strep-Tactin), EndoHF treated; not shown: Strep-II, N-terminal, kept; copies: 2 + 2
Description: SEC; purified, EndoHF-treated CD9–EWI-F_(ΔIg1-5) complex incubated with a large excess of 4C8, Superdex 200 10/300 increase in 50 mM Tris pH 7.8, 150 mM NaCl, 0.08% digitonin, 4°C; SDS-PAGE of the peak. The following applies: both partners purified. A general note: Size exclusion chromatography separates by hydrodynamic size, large species first.

Test [6] deals with T6, full-length EWI-F (human, UniProt Q9P2B2 26-879).
T6 construct: human EWI-F, full length, UniprotKB Q9P2B2; All EWI-F constructs were cloned with an N-terminal cystatin signal peptide; Heterogeneously glycosylated; also called CD9-partner 1; prostaglandin F2 receptor negative regulator; source: HEK293-EBNA cells, co-transfected with Strep3-GFP-CD9-W6; in lysate, co-purified (Strep-Tactin, SEC)
T6 sequence (looked up): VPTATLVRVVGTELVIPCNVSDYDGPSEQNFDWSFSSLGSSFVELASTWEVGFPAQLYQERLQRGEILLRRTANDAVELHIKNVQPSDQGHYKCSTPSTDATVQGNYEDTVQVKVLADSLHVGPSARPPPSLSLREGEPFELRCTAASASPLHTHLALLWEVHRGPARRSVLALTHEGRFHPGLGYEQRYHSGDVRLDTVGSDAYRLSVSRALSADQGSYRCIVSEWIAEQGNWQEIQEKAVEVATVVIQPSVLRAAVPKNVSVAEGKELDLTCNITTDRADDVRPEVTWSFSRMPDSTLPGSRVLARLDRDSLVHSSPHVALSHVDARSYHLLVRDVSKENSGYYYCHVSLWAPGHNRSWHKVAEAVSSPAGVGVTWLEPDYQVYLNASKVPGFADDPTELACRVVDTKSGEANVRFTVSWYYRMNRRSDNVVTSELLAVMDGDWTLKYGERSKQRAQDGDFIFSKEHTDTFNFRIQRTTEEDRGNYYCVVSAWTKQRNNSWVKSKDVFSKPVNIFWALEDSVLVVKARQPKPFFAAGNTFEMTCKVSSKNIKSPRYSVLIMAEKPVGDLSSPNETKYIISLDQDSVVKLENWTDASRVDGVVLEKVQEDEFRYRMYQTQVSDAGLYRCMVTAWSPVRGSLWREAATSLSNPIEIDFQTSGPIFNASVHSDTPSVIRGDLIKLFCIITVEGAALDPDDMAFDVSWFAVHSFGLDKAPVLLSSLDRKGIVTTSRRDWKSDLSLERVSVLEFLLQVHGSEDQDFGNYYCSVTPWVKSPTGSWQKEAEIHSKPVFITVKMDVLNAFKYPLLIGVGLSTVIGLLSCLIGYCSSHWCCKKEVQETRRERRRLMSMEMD
In words: pull-down; Strep3-GFP-CD9-W6 co-transfected with EWI-F variants in 25 ml HEK293-EBNA cultures; lysis in 1% DDM, 0.5% digitonin; Strep-Tactin resin, washes in 0.08% digitonin, elution with desthiobiotin; SDS-PAGE. The note with it: partners not purified.

B1: anti-CD9 nanobody 4C8 (VHH)
VHH: EVQLVESGGGLVQAGGSLRLSCAASGRTFSDYVMGWFRQAPGKERTFVARIGWSGDLTYYADSVKGRFTISRDNAKNTVYLQMNSLKPEDTAIYYCAADERWGTGGKFDYWGQGTQVTVSS
notes: they are in the deposited structures PDB 6Z1Z (4C8 alone) and PDB 6Z20 (nanobody chain of CD9EC2-4C8); Selected from a phage library (Neviani et al, 2020); The thrombin-cleavable His tag was removed with thrombin; also called Nb 4C8; source: E. coli BL-21 Codon Plus (DE3)-RIL, periplasmic secretion, purified (HisTrap, desalting; thrombin treatment, Superdex75); not shown: His6, C-terminal, cleaved
B1: the binding result in test [1], in test [2] and in test [5] was “binds” throughout. In addition, the values for the Kd in test [3] and in test [4] were 0.59 nM and 0.9 nM, respectively.

B2: anti-CD9 nanobody 4E8 (VHH)
VHH: EVQLVESGGRLVRTGGSLRLSCAASGRTFSNYVMGWFRQAPGKEREVVAAITWSGDITWHADFVKGRFTISRDNAKNTVYLQMNSLKPEDTAVYYCAATERWGLRAPADWGSWGQGTQVTVSS
notes: they are in the deposited structure PDB 6Z1V (nanobody chain of CD9EC2-4E8); Differs from 4C8 in CDR2 and CDR3; The thrombin-cleavable tag was not removed before crystallization; also called Nb 4E8; source: E. coli BL-21 Codon Plus (DE3)-RIL, periplasmic secretion, purified (HisTrap, desalting); not shown: His6, C-terminal, kept
Regarding B2, the binding result in test [1] and in test [2] was “binds” throughout. The figures for the Kd in test [3] and in test [4] were 32.6 nM and 2.01 nM, respectively.

B3: N-Strep3-GFP-tagged CD9-W6 (natural protein, human, UniProt P21926 1-228, looked up)
chain: MPVKGGTKWIKYLLFGFNFIFWLAGIAVLAIGLWLRFDSQTKSIFEQETNNNNSSFYTGVYILIGAGALMMLVGFLGWWGAVQESQWMLGLFFGFLLVIFAIEIAAAIWGYSHKDEVIKEVQEFYKDTYNKLKTKDEPQRETLKAIHYALNCCGLAGGVEQFISDICPKKDVLETFTVKSCPDAIKEVFDNKFHIIGAVGIGIAVVMIFGMIFSMILWWAIRRNREMV
notes: human CD9 (Tspan29), full length, all palmitoylated cysteines mutated to tryptophan (CD9-W6); The Strep3-GFP tag is followed by a TEV-protease site; The results speak only of 'Strep-GFP-tagged CD9'; the methods name CD9-W6 for these experiments; also called Strep-GFP-tagged CD9; source: HEK293-EBNA cells, co-transfected with EWI-F variants; in lysate (DDM or DDM/digitonin), Strep-Tactin purified, …
B3: in test [6], the binding result is given as “binds”.

The values above are taken from paper PMC7536822, “Implications for tetraspanin-enriched microdomain assembly based on structures of CD9 with EWI-F” (Life Science Alliance, 2020).
